The values that follow come from patent publication US20170355766A1 (Xencor, published 2017).

The test concerns the target T1, human FcγRIIb receptor protein (R&D Systems) (human, UniProt P31994 46-217).
T1 construct: Analyte injected over antibodies captured on a protein A/G chip (Biacore); also called CD32b
T1 sequence (looked up): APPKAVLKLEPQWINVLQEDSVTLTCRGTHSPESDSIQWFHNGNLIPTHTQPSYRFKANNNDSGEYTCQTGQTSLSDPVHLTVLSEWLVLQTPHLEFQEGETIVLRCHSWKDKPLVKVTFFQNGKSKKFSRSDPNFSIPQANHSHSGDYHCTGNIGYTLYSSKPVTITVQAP
The test is described as follows: SPR (Biacore). The procedure: Variants were screened for receptor affinity using Biacore™ technology, also referred to as Biacore herein, a surface plasmon resonance (SPR) based technology for studying biomolecular interactions in real time. SPR measurements were performed using a Biacore 3000 instrument (Biacore, Piscataway, N.J.). A protein A/G (Pierce Biotechnology) CM5 biosensor chip (Biacore) was generated using a standard primary amine coupling protocol. All measurements were performed using HBS-EP buffer (10 mM HEPES pH 7.4, 0.15 M NaCl, 3 mM EDTA, 0.005% vol/vol surfactant P20, Biacore). Antibodies at 20 nM or 50 nM in HBS-EP buffer were immobilized on the protein A/G surface and FcγRs were injected. After each cycle, the surface was regenerated by injecting glycine buffer (10 mM, pH 1.5). Data were processed by zeroing time and response before the injection of FcγR and by subtracting appropriate nonspecific signals (response of reference channel and injection of running buffer). Kinetic analyses were performed by global fitting of binding data with a 1:1 Langmuir binding model using BIAevaluation software (Biacore).

B1: A327D/L328Y/I332E (antibody, human IgG1, kappa)
heavy: EVQLVESGGGLVKPGGSLKLSCAASGYTFTSYVMHWVRQAPGKGLEWIGYINPYNDGTKYNEKFQGRVTISSDKSISTAYMELSSLRSEDTAMYYCARGTYYYGTRVFDYWGQGTLVTVSSASTKGPSVFPLAPSSKSTSGGTAALGCLVKDYFPEPVTVSWNSGALTSGVHTFPAVLQSSGLYSLSSVVTVPSSSLGTQTYICNVNHKPSNTKVDKKVEPKSCDKTHTCPPCPAPELLGGPSVFLFPPKPKDTLMISRTPEVTCVVVDVSHEDPEVKFNWYVDGVEVHNAKTKPREEQYNSTYRVVSVLTVLHQDWLNGKEYKCKVSNKDYPAPEEKTISKAKGQPREPQVYTLPPSREEMTKNQVSLTCLVKGFYPSDIAVEWESNGQPENNYKTTPPVLDSDGSFFLYSKLTVDKSRWQQGNVFSCSVMHEALHNHYTQKSLSLSPGK
light: DIVMTQSPATLSLSPGERATLSCRSSKSLQNVNGNTYLYWFQQKPGQSPQLLIYRMSNLNSGVPDRFSGSGSGTEFTLTISSLEPEDFAVYYCMQHLEYPITFGAGTKLEIKRTVAAPSVFIFPPSDEQLKSGTASVVCLLNNFYPREAKVQWKVDNALQSGNSQESVTEQDSKDSTYSLSSTLTLSKADYEKHKVYACEVTHQGLSSPVTKSFNRGEC
notes: HuAM4G7 IgG1 Fc variant
Regarding B1, the “Fold FcγRIIb” value is 2.31 fold.

B2: G236D/H268D (antibody, human IgG1, kappa)
heavy: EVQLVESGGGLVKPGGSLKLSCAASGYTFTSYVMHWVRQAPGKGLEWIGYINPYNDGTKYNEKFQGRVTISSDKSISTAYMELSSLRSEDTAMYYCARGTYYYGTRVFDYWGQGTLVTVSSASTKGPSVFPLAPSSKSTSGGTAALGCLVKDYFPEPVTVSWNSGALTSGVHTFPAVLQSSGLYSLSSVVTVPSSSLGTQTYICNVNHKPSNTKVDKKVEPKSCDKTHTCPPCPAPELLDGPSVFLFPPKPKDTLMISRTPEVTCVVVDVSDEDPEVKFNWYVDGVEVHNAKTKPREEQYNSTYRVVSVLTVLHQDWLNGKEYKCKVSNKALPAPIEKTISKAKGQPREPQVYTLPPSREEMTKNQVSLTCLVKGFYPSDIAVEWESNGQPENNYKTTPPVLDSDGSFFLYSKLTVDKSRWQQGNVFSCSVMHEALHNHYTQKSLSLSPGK
light: DIVMTQSPATLSLSPGERATLSCRSSKSLQNVNGNTYLYWFQQKPGQSPQLLIYRMSNLNSGVPDRFSGSGSGTEFTLTISSLEPEDFAVYYCMQHLEYPITFGAGTKLEIKRTVAAPSVFIFPPSDEQLKSGTASVVCLLNNFYPREAKVQWKVDNALQSGNSQESVTEQDSKDSTYSLSSTLTLSKADYEKHKVYACEVTHQGLSSPVTKSFNRGEC
notes: HuAM4G7 IgG1 Fc variant
With B2, the “Fold FcγRIIb” value was found to be 11.6 fold.

B3: A330H (antibody, human IgG1, kappa)
heavy: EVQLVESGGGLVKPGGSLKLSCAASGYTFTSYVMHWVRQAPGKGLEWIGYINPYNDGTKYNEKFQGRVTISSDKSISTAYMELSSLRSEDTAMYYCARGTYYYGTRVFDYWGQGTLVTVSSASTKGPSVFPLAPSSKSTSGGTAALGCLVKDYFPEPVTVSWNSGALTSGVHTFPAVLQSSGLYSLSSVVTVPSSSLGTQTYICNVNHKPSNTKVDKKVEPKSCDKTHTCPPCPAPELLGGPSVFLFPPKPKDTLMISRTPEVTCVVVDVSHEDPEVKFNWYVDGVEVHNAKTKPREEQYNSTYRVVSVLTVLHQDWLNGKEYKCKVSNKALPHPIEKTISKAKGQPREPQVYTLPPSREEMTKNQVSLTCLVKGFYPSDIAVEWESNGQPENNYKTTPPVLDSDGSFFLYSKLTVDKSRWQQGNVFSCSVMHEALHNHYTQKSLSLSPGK
light: DIVMTQSPATLSLSPGERATLSCRSSKSLQNVNGNTYLYWFQQKPGQSPQLLIYRMSNLNSGVPDRFSGSGSGTEFTLTISSLEPEDFAVYYCMQHLEYPITFGAGTKLEIKRTVAAPSVFIFPPSDEQLKSGTASVVCLLNNFYPREAKVQWKVDNALQSGNSQESVTEQDSKDSTYSLSSTLTLSKADYEKHKVYACEVTHQGLSSPVTKSFNRGEC
notes: HuAM4G7 IgG1 Fc variant
B3: the binding result is listed as “no binding”.

B4: G237L (antibody, human IgG1, kappa)
heavy: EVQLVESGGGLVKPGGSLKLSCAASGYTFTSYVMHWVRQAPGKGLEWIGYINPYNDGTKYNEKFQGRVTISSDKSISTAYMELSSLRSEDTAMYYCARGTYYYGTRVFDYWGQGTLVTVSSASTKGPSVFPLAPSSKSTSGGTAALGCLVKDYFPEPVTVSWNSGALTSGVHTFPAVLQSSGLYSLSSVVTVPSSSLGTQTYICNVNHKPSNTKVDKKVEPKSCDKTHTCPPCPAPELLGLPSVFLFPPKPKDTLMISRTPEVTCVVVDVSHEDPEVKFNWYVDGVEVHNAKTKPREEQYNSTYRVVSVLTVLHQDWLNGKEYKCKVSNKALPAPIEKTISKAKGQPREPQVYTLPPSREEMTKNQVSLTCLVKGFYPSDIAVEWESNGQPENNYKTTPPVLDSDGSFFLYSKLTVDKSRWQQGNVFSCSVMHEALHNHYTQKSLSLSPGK
light: DIVMTQSPATLSLSPGERATLSCRSSKSLQNVNGNTYLYWFQQKPGQSPQLLIYRMSNLNSGVPDRFSGSGSGTEFTLTISSLEPEDFAVYYCMQHLEYPITFGAGTKLEIKRTVAAPSVFIFPPSDEQLKSGTASVVCLLNNFYPREAKVQWKVDNALQSGNSQESVTEQDSKDSTYSLSSTLTLSKADYEKHKVYACEVTHQGLSSPVTKSFNRGEC
notes: HuAM4G7 IgG1 Fc variant
Consider B4, for which the binding result is on record as “no binding”.

B5: H268D/A327D/L328Y (antibody, human IgG1, kappa)
heavy: EVQLVESGGGLVKPGGSLKLSCAASGYTFTSYVMHWVRQAPGKGLEWIGYINPYNDGTKYNEKFQGRVTISSDKSISTAYMELSSLRSEDTAMYYCARGTYYYGTRVFDYWGQGTLVTVSSASTKGPSVFPLAPSSKSTSGGTAALGCLVKDYFPEPVTVSWNSGALTSGVHTFPAVLQSSGLYSLSSVVTVPSSSLGTQTYICNVNHKPSNTKVDKKVEPKSCDKTHTCPPCPAPELLGGPSVFLFPPKPKDTLMISRTPEVTCVVVDVSDEDPEVKFNWYVDGVEVHNAKTKPREEQYNSTYRVVSVLTVLHQDWLNGKEYKCKVSNKDYPAPIEKTISKAKGQPREPQVYTLPPSREEMTKNQVSLTCLVKGFYPSDIAVEWESNGQPENNYKTTPPVLDSDGSFFLYSKLTVDKSRWQQGNVFSCSVMHEALHNHYTQKSLSLSPGK
light: DIVMTQSPATLSLSPGERATLSCRSSKSLQNVNGNTYLYWFQQKPGQSPQLLIYRMSNLNSGVPDRFSGSGSGTEFTLTISSLEPEDFAVYYCMQHLEYPITFGAGTKLEIKRTVAAPSVFIFPPSDEQLKSGTASVVCLLNNFYPREAKVQWKVDNALQSGNSQESVTEQDSKDSTYSLSSTLTLSKADYEKHKVYACEVTHQGLSSPVTKSFNRGEC
notes: HuAM4G7 IgG1 Fc variant
In the case of B5, the “Fold FcγRIIb” value came to 3.49 fold.

B6: G237H (antibody, human IgG1, kappa)
heavy: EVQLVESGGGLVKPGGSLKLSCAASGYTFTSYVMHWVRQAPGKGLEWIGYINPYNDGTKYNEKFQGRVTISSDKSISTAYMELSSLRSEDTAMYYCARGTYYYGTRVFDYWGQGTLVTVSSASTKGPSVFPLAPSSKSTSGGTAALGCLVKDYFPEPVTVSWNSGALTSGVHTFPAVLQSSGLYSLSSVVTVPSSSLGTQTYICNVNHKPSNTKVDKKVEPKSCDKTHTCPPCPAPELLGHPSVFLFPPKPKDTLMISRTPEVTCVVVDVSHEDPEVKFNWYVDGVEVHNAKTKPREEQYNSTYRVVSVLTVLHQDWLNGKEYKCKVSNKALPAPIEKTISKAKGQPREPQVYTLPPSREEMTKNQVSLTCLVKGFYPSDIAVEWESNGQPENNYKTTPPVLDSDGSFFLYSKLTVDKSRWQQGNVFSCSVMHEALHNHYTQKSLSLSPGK
light: DIVMTQSPATLSLSPGERATLSCRSSKSLQNVNGNTYLYWFQQKPGQSPQLLIYRMSNLNSGVPDRFSGSGSGTEFTLTISSLEPEDFAVYYCMQHLEYPITFGAGTKLEIKRTVAAPSVFIFPPSDEQLKSGTASVVCLLNNFYPREAKVQWKVDNALQSGNSQESVTEQDSKDSTYSLSSTLTLSKADYEKHKVYACEVTHQGLSSPVTKSFNRGEC
notes: HuAM4G7 IgG1 Fc variant
On to B6, for which the binding result is “no binding”.

B7: A327L (antibody, human IgG1, kappa)
heavy: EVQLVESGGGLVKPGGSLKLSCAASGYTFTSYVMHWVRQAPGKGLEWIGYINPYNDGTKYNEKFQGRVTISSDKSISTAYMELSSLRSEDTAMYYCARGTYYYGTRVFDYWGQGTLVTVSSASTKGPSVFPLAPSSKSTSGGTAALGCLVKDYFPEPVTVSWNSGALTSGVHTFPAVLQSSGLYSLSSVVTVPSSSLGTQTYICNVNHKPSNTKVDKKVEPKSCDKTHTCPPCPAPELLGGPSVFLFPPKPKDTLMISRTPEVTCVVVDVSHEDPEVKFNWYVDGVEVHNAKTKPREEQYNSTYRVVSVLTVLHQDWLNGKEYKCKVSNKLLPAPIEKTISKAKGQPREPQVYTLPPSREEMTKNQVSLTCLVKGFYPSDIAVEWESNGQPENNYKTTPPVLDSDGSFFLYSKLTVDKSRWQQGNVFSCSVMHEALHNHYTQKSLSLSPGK
light: DIVMTQSPATLSLSPGERATLSCRSSKSLQNVNGNTYLYWFQQKPGQSPQLLIYRMSNLNSGVPDRFSGSGSGTEFTLTISSLEPEDFAVYYCMQHLEYPITFGAGTKLEIKRTVAAPSVFIFPPSDEQLKSGTASVVCLLNNFYPREAKVQWKVDNALQSGNSQESVTEQDSKDSTYSLSSTLTLSKADYEKHKVYACEVTHQGLSSPVTKSFNRGEC
notes: HuAM4G7 IgG1 Fc variant
As to B7, the binding result is listed as “no binding”.

B8: G236I (antibody, human IgG1, kappa)
heavy: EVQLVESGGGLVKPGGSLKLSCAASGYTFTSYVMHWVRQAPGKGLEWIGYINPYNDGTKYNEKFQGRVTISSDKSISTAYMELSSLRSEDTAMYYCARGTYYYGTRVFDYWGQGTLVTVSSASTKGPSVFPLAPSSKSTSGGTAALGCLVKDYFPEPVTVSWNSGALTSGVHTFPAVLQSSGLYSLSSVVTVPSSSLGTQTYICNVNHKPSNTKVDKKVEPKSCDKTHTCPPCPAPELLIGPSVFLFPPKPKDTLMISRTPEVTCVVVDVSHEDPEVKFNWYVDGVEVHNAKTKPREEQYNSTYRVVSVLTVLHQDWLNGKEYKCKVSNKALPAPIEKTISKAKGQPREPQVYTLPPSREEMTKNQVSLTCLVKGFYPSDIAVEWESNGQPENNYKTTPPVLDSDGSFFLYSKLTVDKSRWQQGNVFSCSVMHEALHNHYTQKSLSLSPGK
light: DIVMTQSPATLSLSPGERATLSCRSSKSLQNVNGNTYLYWFQQKPGQSPQLLIYRMSNLNSGVPDRFSGSGSGTEFTLTISSLEPEDFAVYYCMQHLEYPITFGAGTKLEIKRTVAAPSVFIFPPSDEQLKSGTASVVCLLNNFYPREAKVQWKVDNALQSGNSQESVTEQDSKDSTYSLSSTLTLSKADYEKHKVYACEVTHQGLSSPVTKSFNRGEC
notes: HuAM4G7 IgG1 Fc variant
Consider B8, for which the binding result is reported as “no binding”.

B9: A330S (antibody, human IgG1, kappa)
heavy: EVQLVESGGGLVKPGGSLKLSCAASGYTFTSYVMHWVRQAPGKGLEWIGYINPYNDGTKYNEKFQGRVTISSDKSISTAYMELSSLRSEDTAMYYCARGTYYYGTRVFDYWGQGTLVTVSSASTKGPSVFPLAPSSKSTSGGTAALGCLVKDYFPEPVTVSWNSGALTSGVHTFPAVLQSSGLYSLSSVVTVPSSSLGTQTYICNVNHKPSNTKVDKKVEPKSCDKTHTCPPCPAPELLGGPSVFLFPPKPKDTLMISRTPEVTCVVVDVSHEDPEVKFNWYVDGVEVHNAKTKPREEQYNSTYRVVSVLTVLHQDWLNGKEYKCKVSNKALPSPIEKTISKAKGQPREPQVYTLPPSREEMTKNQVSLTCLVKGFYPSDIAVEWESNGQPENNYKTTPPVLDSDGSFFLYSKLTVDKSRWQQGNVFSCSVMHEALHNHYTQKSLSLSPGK
light: DIVMTQSPATLSLSPGERATLSCRSSKSLQNVNGNTYLYWFQQKPGQSPQLLIYRMSNLNSGVPDRFSGSGSGTEFTLTISSLEPEDFAVYYCMQHLEYPITFGAGTKLEIKRTVAAPSVFIFPPSDEQLKSGTASVVCLLNNFYPREAKVQWKVDNALQSGNSQESVTEQDSKDSTYSLSSTLTLSKADYEKHKVYACEVTHQGLSSPVTKSFNRGEC
notes: HuAM4G7 IgG1 Fc variant
For the molecule B9, the “Fold FcγRIIb” value is 0.0635 fold.

B10: G236Y (antibody, human IgG1, kappa)
heavy: not shown
light: DIVMTQSPATLSLSPGERATLSCRSSKSLQNVNGNTYLYWFQQKPGQSPQLLIYRMSNLNSGVPDRFSGSGSGTEFTLTISSLEPEDFAVYYCMQHLEYPITFGAGTKLEIKRTVAAPSVFIFPPSDEQLKSGTASVVCLLNNFYPREAKVQWKVDNALQSGNSQESVTEQDSKDSTYSLSSTLTLSKADYEKHKVYACEVTHQGLSSPVTKSFNRGEC
notes: HuAM4G7 IgG1 Fc variant
Consider B10, for which the binding result is recorded as “no binding”.

B11: G236L (antibody, human IgG1, kappa)
heavy: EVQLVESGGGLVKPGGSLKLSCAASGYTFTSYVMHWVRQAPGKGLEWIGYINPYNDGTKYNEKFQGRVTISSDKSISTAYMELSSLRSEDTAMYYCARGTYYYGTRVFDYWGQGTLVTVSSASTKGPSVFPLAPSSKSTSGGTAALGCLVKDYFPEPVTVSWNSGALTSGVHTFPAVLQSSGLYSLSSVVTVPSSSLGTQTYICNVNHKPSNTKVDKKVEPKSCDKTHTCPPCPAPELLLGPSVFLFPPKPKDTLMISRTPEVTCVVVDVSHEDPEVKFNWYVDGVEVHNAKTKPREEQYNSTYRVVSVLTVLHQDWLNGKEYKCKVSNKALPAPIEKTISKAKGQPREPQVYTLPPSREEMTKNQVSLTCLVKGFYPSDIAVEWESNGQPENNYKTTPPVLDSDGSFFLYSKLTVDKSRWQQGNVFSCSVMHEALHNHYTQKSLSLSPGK
light: DIVMTQSPATLSLSPGERATLSCRSSKSLQNVNGNTYLYWFQQKPGQSPQLLIYRMSNLNSGVPDRFSGSGSGTEFTLTISSLEPEDFAVYYCMQHLEYPITFGAGTKLEIKRTVAAPSVFIFPPSDEQLKSGTASVVCLLNNFYPREAKVQWKVDNALQSGNSQESVTEQDSKDSTYSLSSTLTLSKADYEKHKVYACEVTHQGLSSPVTKSFNRGEC
notes: HuAM4G7 IgG1 Fc variant
For the molecule B11, the binding result is listed as “no binding”.

B12: A330D (antibody, human IgG1, kappa)
heavy: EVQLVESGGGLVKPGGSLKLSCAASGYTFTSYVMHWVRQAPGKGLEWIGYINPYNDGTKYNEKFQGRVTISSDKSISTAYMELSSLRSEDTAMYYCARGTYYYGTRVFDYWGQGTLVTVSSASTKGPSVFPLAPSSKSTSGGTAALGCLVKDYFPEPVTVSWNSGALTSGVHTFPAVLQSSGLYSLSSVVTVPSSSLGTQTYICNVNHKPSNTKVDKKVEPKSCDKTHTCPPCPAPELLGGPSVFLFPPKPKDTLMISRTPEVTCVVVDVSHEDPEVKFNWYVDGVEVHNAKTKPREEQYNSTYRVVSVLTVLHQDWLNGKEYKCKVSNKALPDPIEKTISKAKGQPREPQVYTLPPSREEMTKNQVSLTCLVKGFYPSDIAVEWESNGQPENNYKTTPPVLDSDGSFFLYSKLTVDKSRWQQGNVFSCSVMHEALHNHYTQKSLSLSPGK
light: DIVMTQSPATLSLSPGERATLSCRSSKSLQNVNGNTYLYWFQQKPGQSPQLLIYRMSNLNSGVPDRFSGSGSGTEFTLTISSLEPEDFAVYYCMQHLEYPITFGAGTKLEIKRTVAAPSVFIFPPSDEQLKSGTASVVCLLNNFYPREAKVQWKVDNALQSGNSQESVTEQDSKDSTYSLSSTLTLSKADYEKHKVYACEVTHQGLSSPVTKSFNRGEC
notes: HuAM4G7 IgG1 Fc variant
For B12, the binding result is “no binding”.

B13: G236A/G237A (antibody, human IgG1, kappa)
heavy: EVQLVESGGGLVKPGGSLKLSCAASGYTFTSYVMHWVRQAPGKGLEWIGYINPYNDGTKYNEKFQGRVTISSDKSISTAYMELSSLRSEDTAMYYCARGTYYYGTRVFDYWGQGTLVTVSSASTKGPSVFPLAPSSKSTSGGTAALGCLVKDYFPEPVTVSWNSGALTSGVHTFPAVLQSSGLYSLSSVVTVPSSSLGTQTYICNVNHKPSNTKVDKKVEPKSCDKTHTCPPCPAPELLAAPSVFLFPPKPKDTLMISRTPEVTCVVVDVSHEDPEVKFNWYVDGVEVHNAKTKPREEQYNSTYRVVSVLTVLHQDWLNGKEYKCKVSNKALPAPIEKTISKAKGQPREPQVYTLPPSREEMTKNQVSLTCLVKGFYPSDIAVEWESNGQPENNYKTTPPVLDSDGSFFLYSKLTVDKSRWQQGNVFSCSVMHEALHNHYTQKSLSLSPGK
light: DIVMTQSPATLSLSPGERATLSCRSSKSLQNVNGNTYLYWFQQKPGQSPQLLIYRMSNLNSGVPDRFSGSGSGTEFTLTISSLEPEDFAVYYCMQHLEYPITFGAGTKLEIKRTVAAPSVFIFPPSDEQLKSGTASVVCLLNNFYPREAKVQWKVDNALQSGNSQESVTEQDSKDSTYSLSSTLTLSKADYEKHKVYACEVTHQGLSSPVTKSFNRGEC
notes: HuAM4G7 IgG1 Fc variant
In the case of B13, the “Fold FcγRIIb” value is 0.0578 fold.

B14: G236S/G237A (antibody, human IgG1, kappa)
heavy: not shown
light: DIVMTQSPATLSLSPGERATLSCRSSKSLQNVNGNTYLYWFQQKPGQSPQLLIYRMSNLNSGVPDRFSGSGSGTEFTLTISSLEPEDFAVYYCMQHLEYPITFGAGTKLEIKRTVAAPSVFIFPPSDEQLKSGTASVVCLLNNFYPREAKVQWKVDNALQSGNSQESVTEQDSKDSTYSLSSTLTLSKADYEKHKVYACEVTHQGLSSPVTKSFNRGEC
notes: HuAM4G7 IgG1 Fc variant
On to B14, for which the “Fold FcγRIIb” value is 0.0797 fold.

B15: A330K (antibody, human IgG1, kappa)
heavy: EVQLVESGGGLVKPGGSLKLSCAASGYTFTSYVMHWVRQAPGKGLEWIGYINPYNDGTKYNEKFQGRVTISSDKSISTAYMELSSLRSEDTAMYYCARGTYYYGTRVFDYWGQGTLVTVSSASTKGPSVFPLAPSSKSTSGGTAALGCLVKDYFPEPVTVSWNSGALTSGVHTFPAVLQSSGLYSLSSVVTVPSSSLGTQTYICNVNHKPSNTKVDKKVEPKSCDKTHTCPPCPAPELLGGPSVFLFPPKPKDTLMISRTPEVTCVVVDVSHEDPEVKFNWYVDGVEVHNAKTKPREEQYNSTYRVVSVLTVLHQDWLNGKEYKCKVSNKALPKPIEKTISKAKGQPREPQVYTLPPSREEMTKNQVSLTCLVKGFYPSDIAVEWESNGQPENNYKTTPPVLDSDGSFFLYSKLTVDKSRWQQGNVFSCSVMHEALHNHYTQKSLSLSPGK
light: DIVMTQSPATLSLSPGERATLSCRSSKSLQNVNGNTYLYWFQQKPGQSPQLLIYRMSNLNSGVPDRFSGSGSGTEFTLTISSLEPEDFAVYYCMQHLEYPITFGAGTKLEIKRTVAAPSVFIFPPSDEQLKSGTASVVCLLNNFYPREAKVQWKVDNALQSGNSQESVTEQDSKDSTYSLSSTLTLSKADYEKHKVYACEVTHQGLSSPVTKSFNRGEC
notes: HuAM4G7 IgG1 Fc variant
Turning to B15, the “Fold FcγRIIb” value was determined as 1.55 fold.

B16: H268D/A327D (antibody, human IgG1, kappa)
heavy: not shown
light: DIVMTQSPATLSLSPGERATLSCRSSKSLQNVNGNTYLYWFQQKPGQSPQLLIYRMSNLNSGVPDRFSGSGSGTEFTLTISSLEPEDFAVYYCMQHLEYPITFGAGTKLEIKRTVAAPSVFIFPPSDEQLKSGTASVVCLLNNFYPREAKVQWKVDNALQSGNSQESVTEQDSKDSTYSLSSTLTLSKADYEKHKVYACEVTHQGLSSPVTKSFNRGEC
notes: HuAM4G7 IgG1 Fc variant
In the case of B16, the “Fold FcγRIIb” value was determined as 7.68 fold.
